Reference: the supplement of paper PMC10126150
± gives the standard deviation of the averaged measurements.

Tested on: ATP
Experiment: switch fluorescence ratio, 500 uM ATP over buffer (Cy3 cluster intensity, sum of 5 cycles each) (fold (ratio)); higher = stronger signal-on switching upon ATP binding; sequences stand for … in TCGTCGGCAGCGTCAGATGTGTATAAGAGACAGTTTTTTTTTTTTTTTTTTTTTTTTT…TC
Conditions: aptamer strand: ATP DNA aptamer (quencher-CACCTGGGGGAGTATTGCGGAGGAAGG + anchor), 100 nM annealed; ATP concentration: 500 uM
Procedure, shortened: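 Five buffer/ATP imaging cycles were run on Cy3-labelled switching-strand clusters on a modified Illumina MiSeq flow-cell, with NaOH stripping and re-annealing between cycles. In each cycle, clusters annealed to 100 nM quencher-labelled ATP aptamer were imaged in selection buffer, then after 15 min with 500 uM ATP at 22 °C. Per cluster, the fluorescence ratio is summed target-cycle over summed buffer-cycle Cy3 intensity, averaged per switch-domain sequence. Only clusters within 100-1000 RFU were kept.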
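Further: ATP exposure 15 min at 22 °C before imaging.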

CCGTTTTAGT gave a switch fluorescence ratio of 1.02 ± 0.039.
ACTTTATTTC showed a switch fluorescence ratio of 1.011 ± 0.006.
Work on TTGCAGATGG yielded a switch fluorescence ratio of 0.999 ± 0.057.
TGCTAGTTCT showed a switch fluorescence ratio of 0.99 ± 0.016.
Sequence GTGGCCCCGG has a switch fluorescence ratio of 1.02 ± 0.043.
In the case of TTCTGTATGC, the switch fluorescence ratio is reported as 1.02 ± 0.045.
Sequence TCGTCGTGGG has a switch fluorescence ratio of 1.02 ± 0.025.
Work on TGAGCTGGGG yielded a switch fluorescence ratio of 0.996 ± 0.02.
ACCGTTTCGT showed a switch fluorescence ratio of 0.94 ± 0.029.
TTTTACAGCA gave a switch fluorescence ratio of 1.04 ± 0.03.
For TTCTTGTAAT, the switch fluorescence ratio was 1.014 ± 0.003.
Work on AGAAAGGGGT yielded a switch fluorescence ratio of 1.01 ± 0.055.
Work on TCAAAAGGGA yielded a switch fluorescence ratio of 1.02 ± 0.041.
For TTTCTGACGG, the switch fluorescence ratio was 1.35 ± 0.58.
Sequence TGTGTATTCC has a switch fluorescence ratio of 1.05 ± 0.037.
TTTGATAGGA was tested, and the switch fluorescence ratio was 0.975 ± 0.02.
In the case of ACGGTAACGT, the switch fluorescence ratio is reported as 1.02 ± 0.0058.
With TTCGTGGGCT the switch fluorescence ratio was 1.02 ± 0.045.
Work on TCGGCCAGGT yielded a switch fluorescence ratio of 1.5 ± 0.046.
For AGTGGGGATG, the switch fluorescence ratio was 1.01 ± 0.013.
With CCTGAGATAC the switch fluorescence ratio was 1.88 ± 1.
In the case of AACTTTAGGG, the switch fluorescence ratio is reported as 0.997 ± 0.039.
GGTGTAAAAG was tested, and the switch fluorescence ratio was 1.014 ± 0.0036.
Work on TTACCAGATT yielded a switch fluorescence ratio of 0.982 ± 0.033.
In the case of ATGCACGTGG, the switch fluorescence ratio is reported as 1.008 ± 0.003.
ATAGGGGTTC was tested, and the switch fluorescence ratio was 0.994 ± 0.035.
In the case of TAATCGTGTG, the switch fluorescence ratio is reported as 0.985 ± 0.067.
GAATAAAGTT gave a switch fluorescence ratio of 0.986 ± 0.046.
ATTGAATGGT was tested, and the switch fluorescence ratio was 1.006 ± 0.0027.
Sequence TTTTTAACAG has a switch fluorescence ratio of 0.997 ± 0.021.
Work on AGGGCTGTTA yielded a switch fluorescence ratio of 0.998 ± 0.033.
In the case of TGGAACGGTT, the switch fluorescence ratio is reported as 1.04 ± 0.047.
With GGTCCTGTTG the switch fluorescence ratio was 1.01 ± 0.035.
Sequence GACGACGATG has a switch fluorescence ratio of 1.016 ± 0.0022.
With TAAGTGTAAA the switch fluorescence ratio was 0.986 ± 0.013.
ATTATGTCGT gave a switch fluorescence ratio of 1 ± 0.013.
For AAGGTGTTTT, the switch fluorescence ratio was 1.08 ± 0.016.
In the case of AAGAGGTGAA, the switch fluorescence ratio is reported as 0.987 ± 0.013.
For TATGGATTAT, the switch fluorescence ratio was 1.02 ± 0.081.
Sequence GGGGGGGAAA has a switch fluorescence ratio of 0.99 ± 0.035.
TGTGTGCAAT was tested, and the switch fluorescence ratio was 1.0784 ± 0.001.
Sequence ATCACAACTG has a switch fluorescence ratio of 0.997 ± 0.15.
GGCAGGCCAT gave a switch fluorescence ratio of 1.059 ± 0.0074.
Sequence TTTTGATTAA has a switch fluorescence ratio of 1.02 ± 0.041.
GCTTCAGGCC showed a switch fluorescence ratio of 1.02 ± 0.022.
With CCGAACTATG the switch fluorescence ratio was 1.135 ± 0.0027.
Sequence GAGGATTCAT has a switch fluorescence ratio of 1.04 ± 0.085.
With GGGGGGGTTA the switch fluorescence ratio was 0.992 ± 0.025.
CGAGGTTATT gave a switch fluorescence ratio of 1 ± 0.037.
AGCAAAATGG showed a switch fluorescence ratio of 1.0258 ± 0.00022.
GGTCGCGGAT was tested, and the switch fluorescence ratio was 1.01 ± 0.019.
ATTCACCCGC gave a switch fluorescence ratio of 1.48 ± 0.13.
With ATTTTGCTTT the switch fluorescence ratio was 0.965 ± 0.021.
GGATAGAGGA was tested, and the switch fluorescence ratio was 1.01 ± 0.02.
GGGAGGGGCG gave a switch fluorescence ratio of 1 ± 0.023.
GGTGGGGATT gave a switch fluorescence ratio of 1.07 ± 0.17.
With CCGAGACCGC the switch fluorescence ratio was 2.71 ± 0.2.
AGTGGAGCTG showed a switch fluorescence ratio of 1.02 ± 0.038.
ACAGTGCGGC gave a switch fluorescence ratio of 0.961 ± 0.035.
In the case of AGCTTTCGCG, the switch fluorescence ratio is reported as 0.99 ± 0.03.
In the case of CGTTTCAGCG, the switch fluorescence ratio is reported as 0.952 ± 0.051.
In the case of CATTTTGAGC, the switch fluorescence ratio is reported as 0.996 ± 0.014.
Sequence GTTTTTCAAG has a switch fluorescence ratio of 0.975 ± 0.01.
TTAGCTGGTG gave a switch fluorescence ratio of 1.07 ± 0.067.
For TTTATAACAC, the switch fluorescence ratio was 1.05 ± 0.013.
AAGTTGGTGT showed a switch fluorescence ratio of 1.02 ± 0.043.
TGGGGTACAT showed a switch fluorescence ratio of 0.991 ± 0.016.
With GCGGGGGTTG the switch fluorescence ratio was 0.978 ± 0.039.
Work on TTTCGTATTT yielded a switch fluorescence ratio of 0.992 ± 0.046.
In the case of CATGACATTT, the switch fluorescence ratio is reported as 1.06 ± 0.028.
With TCTAGGACGT the switch fluorescence ratio was 1.02 ± 0.019.
With GAGTAGGGGG the switch fluorescence ratio was 0.993 ± 0.033.
AGAGGTAGGG was tested, and the switch fluorescence ratio was 0.984 ± 0.035.
GAAGAATCTG gave a switch fluorescence ratio of 1.03 ± 0.016.
With GGGTAAGTTT the switch fluorescence ratio was 1.007 ± 0.0044.
GCACGATGGT showed a switch fluorescence ratio of 0.972 ± 0.01.
With GCGTGTGTTC the switch fluorescence ratio was 1.08 ± 0.049.
For TTTTCAGGAG, the switch fluorescence ratio was 1.03 ± 0.016.
With GGTGGCCCAA the switch fluorescence ratio was 1.001 ± 0.0059.
TGGGCAGATA was tested, and the switch fluorescence ratio was 1.08 ± 0.1.
Sequence GAGATCGTGC has a switch fluorescence ratio of 0.96 ± 0.018.
TGTCGACCG gave a switch fluorescence ratio of 0.99 ± 0.014.
For GATAGTACGG, the switch fluorescence ratio was 1.01 ± 0.015.
GGGGCTGGTT showed a switch fluorescence ratio of 0.99 ± 0.024.
TGCCAAATAG showed a switch fluorescence ratio of 1.02 ± 0.039.
Work on GGAAAGTAAA yielded a switch fluorescence ratio of 0.982 ± 0.014.
For GTCAACGCCG, the switch fluorescence ratio was 1.02 ± 0.018.
Work on GGAAGGGTCG yielded a switch fluorescence ratio of 1.04 ± 0.022.
AAGGGGTTAT was tested, and the switch fluorescence ratio was 1.02 ± 0.05.
Sequence AATAAAAGGG has a switch fluorescence ratio of 1 ± 0.03.
With AGGCGTAGCT the switch fluorescence ratio was 1.01 ± 0.044.
For ATGTAGGGG, the switch fluorescence ratio was 1 ± 0.022.
AGTTTGCTAG gave a switch fluorescence ratio of 0.994 ± 0.034.
In the case of CTCATTTGAC, the switch fluorescence ratio is reported as 1.032 ± 0.0056.
Work on TTGCGGGGTA yielded a switch fluorescence ratio of 0.978 ± 0.013.
GGAGAGCGGT was tested, and the switch fluorescence ratio was 1.02 ± 0.011.
Work on GCCGGGACTA yielded a switch fluorescence ratio of 1.01 ± 0.024.
GTTGATATAG was tested, and the switch fluorescence ratio was 1 ± 0.021.
Sequence GTTTTCTATG has a switch fluorescence ratio of 1 ± 0.021.
Sequence TTCTTGAGGT has a switch fluorescence ratio of 0.9669 ± 0.0016.
AAGTCAGTGC showed a switch fluorescence ratio of 1.11 ± 0.013.
Sequence TATGCTTATT has a switch fluorescence ratio of 1 ± 0.024.
In the case of AAAGAGGGTT, the switch fluorescence ratio is reported as 1.02 ± 0.019.
With ATACAAGTCT the switch fluorescence ratio was 1.03 ± 0.059.
TTGCAAGTTG showed a switch fluorescence ratio of 1.01 ± 0.021.
For GCTGGGACGT, the switch fluorescence ratio was 1 ± 0.025.
In the case of CGCGCGGGCT, the switch fluorescence ratio is reported as 0.998 ± 0.051.
TTTCGGCATT gave a switch fluorescence ratio of 2.4 ± 1.9.
Work on TTCGCGGGCT yielded a switch fluorescence ratio of 0.996 ± 0.028.
TATTTTCCTG showed a switch fluorescence ratio of 1.15 ± 0.18.
With AGGATGGGGG the switch fluorescence ratio was 0.997 ± 0.045.
GGATATGTGT was tested, and the switch fluorescence ratio was 0.991 ± 0.016.
AGTAAGGTGT gave a switch fluorescence ratio of 1.13 ± 0.095.
Work on AGTGGCCGCG yielded a switch fluorescence ratio of 1.02 ± 0.016.
For GTCGGGAGTG, the switch fluorescence ratio was 0.986 ± 0.065.
With AAGGATCGTT the switch fluorescence ratio was 1 ± 0.018.
Work on AACGGTCACA yielded a switch fluorescence ratio of 1.16 ± 0.021.
ACAGTATGGC gave a switch fluorescence ratio of 0.952 ± 0.041.
For TGTTTTTGTA, the switch fluorescence ratio was 1.07 ± 0.13.
Work on ATCTACATTA yielded a switch fluorescence ratio of 1.04 ± 0.015.
With GTTACGGGGG the switch fluorescence ratio was 1.02 ± 0.031.
Work on TACAGAGTTT yielded a switch fluorescence ratio of 0.977 ± 0.015.
ACGAGGTAAG was tested, and the switch fluorescence ratio was 1.079 ± 0.0031.
ATGACGAAGC gave a switch fluorescence ratio of 1.57 ± 0.13.
CCTGTGGTGC showed a switch fluorescence ratio of 1.342 ± 0.0072.
AACGTAGCGG gave a switch fluorescence ratio of 1.07 ± 0.03.
In the case of AACGTGAGTG, the switch fluorescence ratio is reported as 1.02 ± 0.011.
In the case of TTGGGCGGGA, the switch fluorescence ratio is reported as 0.968 ± 0.099.
GCAGCTGGCA was tested, and the switch fluorescence ratio was 0.984 ± 0.017.
With TATTTGTATG the switch fluorescence ratio was 0.9919 ± 0.003.
Work on TGTTAAACGC yielded a switch fluorescence ratio of 0.945 ± 0.03.
AGCTTATGGT gave a switch fluorescence ratio of 0.962 ± 0.049.
With TGTTGTATGC the switch fluorescence ratio was 0.9617 ± 0.0042.
For TCAGGCTAGC, the switch fluorescence ratio was 1.07 ± 0.026.
AAAACTTTTA showed a switch fluorescence ratio of 1.02 ± 0.04.
GTTATCAGTT was tested, and the switch fluorescence ratio was 0.99 ± 0.014.
Sequence TTTTACATTT has a switch fluorescence ratio of 1 ± 0.057.
Sequence ACATGAATGG has a switch fluorescence ratio of 0.969 ± 0.016.
ACTACTGGCT gave a switch fluorescence ratio of 1.047 ± 0.0089.
In the case of GTGGAAGGGT, the switch fluorescence ratio is reported as 1.02 ± 0.042.
For ATGTATCGGG, the switch fluorescence ratio was 0.975 ± 0.036.
For AGGGGTGTTT, the switch fluorescence ratio was 0.999 ± 0.039.
TATTGTGTAA gave a switch fluorescence ratio of 1 ± 0.023.
For GGAATGCGGG, the switch fluorescence ratio was 0.9701 ± 0.0077.
Sequence TTTGAATTAC has a switch fluorescence ratio of 1.17 ± 0.062.
Work on AAATTGATAT yielded a switch fluorescence ratio of 1.02 ± 0.025.
Work on AGTCTGGTGC yielded a switch fluorescence ratio of 1.04 ± 0.032.
With TGGGGGAATT the switch fluorescence ratio was 1 ± 0.029.
ATTTGAGGAT showed a switch fluorescence ratio of 0.972 ± 0.027.
TTTTTGAAAG gave a switch fluorescence ratio of 0.996 ± 0.013.
TTTTAATCGA showed a switch fluorescence ratio of 1.02 ± 0.043.
In the case of GGGTGGTCTG, the switch fluorescence ratio is reported as 1.01 ± 0.031.
With GTTTATTGTT the switch fluorescence ratio was 1 ± 0.047.
CCTATATAGA was tested, and the switch fluorescence ratio was 0.999 ± 0.029.
Work on TGCTTGCAAA yielded a switch fluorescence ratio of 1.06 ± 0.069.
Work on TAATGTGTAA yielded a switch fluorescence ratio of 0.9944 ± 0.0052.
GGTTTATCAG was tested, and the switch fluorescence ratio was 0.983 ± 0.021.
